Experiments:
Assay in all cases: pull-down binding Z-score (relative to library population); higher = stronger binding
Details in all cases: RNA library: Library-2
[1] = test system: TO-3-N3 (biotin conjugate)
Outline: (§1)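 A heat-folded, dye-end-labelled (Cy5 or Cy3) RNA library (1 μg, phosphate/NaCl/KCl buffer) was exposed for 60 min at 25 °C to streptavidin beads holding 100 pmol of biotin-conjugated small molecule. RNA retained on the beads was eluted in hot SDS and hybridised to a DNA barcode microarray for 20 h at 55.5 °C. Binding scores were Z-scores against the library mean and standard deviation, calculated after subtracting beads alone and taking trimmed means of replicate probes.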

[2] = test system: TO-3-N3-2 (biotin conjugate)
Outline: as §1

[3] = test system: TO-N3-2 (biotin conjugate)
Outline: as §1

TO-N3 (biotin conjugate) = test system: TO-N3 (biotin conjugate)
Outline: as §1

Sequence | pull-down binding Z-score [1] | pull-down binding Z-score [2] | pull-down binding Z-score [3] | pull-down binding Z-score (TO-N3 (biotin conjugate))
GAUUUGUCUUCUACAAUUUGCCUAUGCCAACAGGAAUAGGUUUUUGUAUAUAAUUAAGUUAAUUUUCCUCUGGCUGUUAUGGCCAGUAACUUUAGCUUGUUU | -0.15 | -0.102 | -0.904 | -0.372
GAUUUUGGGACUACCAACUC | -0.579 | -0.384 | -0.581 | -0.683
GCAAACAUACAACGUGUUGU [SHAPE_invitro_SARS-CoV-2_Motif_281] | -0.398 | -0.176 | -0.671 | -0.622
GCAAAUUAAUGC | -0.689 | -0.864 | -1.25 | -1.04
GCAAAUUGCACAAUUUGC | 0.165 | 0.661 | -0.158 | 0.0548
GCAACUUGCUGUUGUUGUUUGUAACAGUUUACUCACACCUUUUGCUCGUUGC | -0.974 | -0.429 | -0.851 | -1.09
GCAAGCUUCGAUAAUUUUAAGUUUGU [SHAPE_invitro_SARS-CoV-2_Motif_120] | 1.04 | 0.402 | -0.0709 | 0.816
GCAAGUUGAAUCUGAUGAUUACAUAGCUACUAAUGGACCACUUAAAGUGGGUGGUAGUUGUGUUUUAAGCGGACACAAUCUUGC | -0.696 | -0.436 | -0.558 | -0.805
GCACACUAGAACCAGAAUAUUUCAAUUCAGUGUGU | -0.957 | -0.413 | -1.18 | -1.2
GCACAUAUAUCUACUAUUGGUGUUUGUUCUAUGACUGACAUAGCCAAGAAACCAACUGAAACGAUUUGUGC | -0.793 | -0.32 | 0.00798 | -0.457
GCACCAUUAUUAUCAGCUGGUAUUUUUGGUGC | -0.619 | -0.502 | -1.18 | -0.921
GCACCUCAUGGUGU | 0.707 | -0.649 | -0.856 | 0.66
GCACGUAGUGUAGCUAGUCAAUCCAUCAUUGCCUACACUAUGUC | 0.288 | 0.0633 | 0.486 | 0.227
GCACUACAGCUAAGGCUAUGGAGC [IAV_invivo_M1_M2_7_Motif_13+IAV_invivo_M1_M2_7_Motif_13] | -0.491 | -0.311 | 0.116 | -0.314
GCACUAUUGCCUUUGGAGGCUGUGUGU [SHAPE_invivo_SARS-CoV-2_Motif_29] | 0.554 | -0.236 | -0.0377 | 0.415
GCACUGACUUGCUUUAGCACUCAAUUUGCUUUUGCUUGUCCUGACGGCGUAAAACACGUCUAUCAGUUACGUGC | 0.239 | -0.234 | -0.056 | 0.281
GCAGACGGGCGAUUUUGUUAAAGCCACUUGC | 0.648 | 0.604 | 1.57 | 0.889
GCAGACUUCAAAGUUUGC | 0.23 | -0.0803 | -1.04 | -0.139
GCAGAGACAGAAGAAACAGCAAACUGUGACUCUUCUUCCUGC | -0.211 | -0.128 | 0.0897 | -0.156
GCAGCAAUAUGC [IAV_invivo_PA_3_Motif_2+IAV_invivo_PA_3_Motif_2] | 0.588 | -0.292 | -0.111 | 0.548
GCAGCCAAACUAAUGGUUGU | 0.609 | 0.228 | 0.312 | 0.574
GCAGGAGCCUUAAAUAAGGCUACUAACAAUGC | 0.214 | -0.0703 | -0.521 | 0.0366
GCAGUAAGUCUGAUACUUACCUG [U1snRNP5ss-9] | 0.85 | 0.129 | 0.892 | 0.947
GCAGUAUAAUUAAUAACUAAUUACUGU [SARS-CoV-2-Conserved-Structured-36_Interval-120-237_Motif_1] | -0.577 | -0.428 | -1.31 | -1.03
GCAGUGGCUAACUAACAUCUUUGGCACUGU | -0.125 | 0.0264 | -0.175 | -0.244
GCAGUUAAAAUGUUUGAUGCUUACGUUAAUACGUUUUCAUCAACUUUUAACGU | -1.09 | -0.145 | -1.09 | -1.37

Sequence | pull-down binding Z-score [1] | pull-down binding Z-score [2] | pull-down binding Z-score [3] | pull-down binding Z-score (TO-N3 (biotin conjugate))
GCAUACAGUCGCUACAGGAUUGGCAACUAUAAAUUAAACACAGACCAUUCCAGUAGCAGUGACAAUAUUGC [SHAPE_invivo_SARS-CoV-2_Motif_513] | -0.0312 | 0.365 | 0.259 | 0.116
GCAUGAUGUUUCAUCUGC | 1.18 | 0.0512 | -0.496 | 0.951
GCAUUGAUUUAGAUGAGUGGAGUAUGGCUACAUACUACUUAUUUGAUGAGUCUGGUGAGUUUAAAUUGGCUUCACAUAUGU | -0.215 | -0.04 | 0.256 | 0.0261
GCCACAAAGGC [IAV_invivo_PA_3_Motif_6+IAV_invivo_PA_3_Motif_6] | -0.745 | -0.685 | -0.964 | -1.13
GCCACGUAUAAACCAAAUACCUGGUGUAUACGUUGU | 0.576 | -0.377 | -0.78 | 0.17
GCCACUAGUCUCUAGUCAGUGUGUUAAUCUUACAACCAGAACUCAAUUACCCCCUGCAUACACUAAUUCUUUCACACGUGGU [SHAPE_invivo_SARS-CoV-2_Motif_403] | -0.0417 | 0.101 | 0.688 | 0.388
GCCACUUGCGAAUUUUGUGGC | 0.0442 | -0.0945 | -0.997 | -0.312
GCCAGCACAUGGUCCAGCCAAAAACAUGGAGUAUGAUGCUGUUGC [IAV_invivo_PB1_2_Motif_34+IAV_invivo_PB1_2_Motif_34] | -0.602 | -0.346 | 1.43 | -0.304
GCCAGUUGGAGGC [IAV_invivo_PB1_2_Motif_15+IAV_invivo_PB1_2_Motif_15] | -0.0995 | -0.201 | 0.153 | -0.233
GCCAUUGCCGGU [IAV_invivo_HA_4_Motif_15+IAV_invivo_HA_4_Motif_15] | -0.443 | -0.49 | -0.0811 | -0.593
GCCAUUUGUCAUGAUGGAAAAGCACACUUUCCUCGUGAAGGUGUCUUUGUUUCAAAUGGC | -1.16 | -0.592 | -0.949 | -1.39
GCCCCAUUCCUUGAUCGGCUUCGCCGAGAUCAGAAAUCCCUAAGAGGAAGGGGC [IAV_invivo_NS1_NEP_8_Motif_3+IAV_invivo_NS1_NEP_8_Motif_3] | -0.845 | -0.223 | 0.181 | -0.849
GCCCUGGAAUGAUGAUGGGC [IAV_invivo_PB1_2_Motif_20+IAV_invivo_PB1_2_Motif_20] | 0.0132 | 0.012 | 0.65 | 0.138
GCCCUUAUAGGGC [IAV_invivo_NA_6_Motif_5+IAV_invivo_NA_6_Motif_5] | 0.164 | -0.38 | -1.22 | -0.247
GCCGAAUACCAUAAUGAAUCUGGC [SHAPE_invitro_SARS-CoV-2_Motif_29] | -0.597 | -0.529 | -0.0249 | -0.479
GCCGCCACUAGAGGAGCUACUGUAGUAAUUGGAACAAGCAAAUUCUAUGGUGGUUGGC | 0.361 | 0.675 | 1.24 | 0.89
GCCGGAUCAGACCGAGUGAUGGUAUCACCACUGGC [IAV_invivo_PB2_1_Motif_5+IAV_invivo_PB2_1_Motif_5] | -0.361 | -0.146 | 0.505 | -0.143
GCCGGUAGCACACCUUGUAAUGGUGUUGAAGGU [SHAPE_invitro_SARS-CoV-2_Motif_416] | 0.478 | -0.509 | 0.332 | 0.452
GCCUGUGUAAAUGGU [IAV_invivo_NA_6_Motif_8+IAV_invivo_NA_6_Motif_8] | -0.344 | -0.297 | -0.434 | -0.471
GCCUUGAAGCCCCUUUUCUCUAUCUUUAUGCUUUAGUCUACUUCUUGCAGAGUAUAAACUUUGUAAGAAUAAUAAUGAGGC | 0.275 | 0.362 | 0.166 | 0.232
GCGCAGCCAGAAACUGGCAGCGC [mismatch-AA] | -0.468 | -0.365 | -0.354 | -0.528
GCGCAGCCAGAAACUGGCCGCGC [mismatch-AC] | -0.43 | -0.295 | -1 | -0.746
GCGCAGCCAGAAACUGGCGGCGC [mismatch-AG] | 0.114 | -0.168 | -0.228 | 0.0293
GCGCCGCCAGAAACUGGCAGCGC [mismatch-CA] | 0.381 | -0.524 | -1.05 | 0.225
GCGCCGCCAGAAACUGGCCGCGC [mismatch-CC] | -0.796 | -0.533 | -0.608 | -1.08
GCGCCGCCAGAAACUGGCUGCGC [mismatch-CU] | 0.308 | -0.0148 | -0.671 | 0.00381

Sequence | pull-down binding Z-score [1] | pull-down binding Z-score [2] | pull-down binding Z-score [3] | pull-down binding Z-score (TO-N3 (biotin conjugate))
GCGCGGCCAGAAACUGGCAGCGC [mismatch-GA] | -0.773 | -0.798 | -1.21 | -1.33
GCGCGGCCAGAAACUGGCGGCGC [mismatch-GG] | -0.0922 | -0.302 | -0.598 | -0.309
GCGCGGCCAGAAACUGGCUGCGC [mismatch-GU] | 0.969 | 0.0256 | -0.388 | 0.831
GCGCUACUGCAACGAUACCGAUACAAGCCUCACUCCCUUUCGGAUGGCUUAUUGUUGGCGUUGCACUUCUUGCUGUUUUUCAGAGCGC | -0.679 | 0.232 | 0.285 | -0.282
GCGCUGCCAGAAACUGGCAAAAGCGC [bulge-AAA] | -0.765 | -0.295 | -0.689 | -0.936
GCGCUGCCAGAAACUGGCAAAGCGC [bulge-AA] | -0.184 | -0.00126 | -0.0432 | -0.403
GCGCUGCCAGAAACUGGCAAGCGC [bulge-A] | -0.289 | -0.541 | -1.12 | -0.493
GCGCUGCCAGAAACUGGCAGCGC [full-UA] | -0.337 | -0.274 | -0.943 | -0.599
GCGCUGCCAGAAACUGGCCAGCGC [bulge-C] | -0.488 | -0.512 | -0.547 | -0.667
GCGCUGCCAGAAACUGGCCCAGCGC [bulge-CC] | -0.161 | -0.288 | 0.352 | -0.282
GCGCUGCCAGAAACUGGCCCCAGCGC [bulge-CCC] | -0.229 | -0.182 | 0.6 | -0.283
GCGCUGCCAGAAACUGGCCGCGC [mismatch-UC] | -0.648 | -0.66 | -0.896 | -0.905
GCGCUGCCAGAAACUGGCGAGCGC [bulge-G] | -0.426 | -0.354 | -0.578 | -0.593
GCGCUGCCAGAAACUGGCGGAGCGC [bulge-GG] | -0.714 | -0.672 | -0.22 | -0.873
GCGCUGCCAGAAACUGGCGGCGC [mismatch-UG] | 0.983 | -0.0108 | -0.856 | 0.624
GCGCUGCCAGAAACUGGCGGGAGCGC [bulge-GGG] | 0.781 | 0.00655 | 0.604 | 0.688
GCGCUGCCAGAAACUGGCUAAGCGC [bulge-UA] | -0.669 | -0.353 | -0.61 | -0.911
GCGCUGCCAGAAACUGGCUAGCGC [bulge-U] | 0.183 | -0.328 | -0.75 | -0.0999
GCGCUGCCAGAAACUGGCUCAGCGC [bulge-UC] | -0.319 | -0.576 | -0.361 | -0.584
GCGCUGCCAGAAACUGGCUGAGCGC [bulge-UG] | 0.553 | -0.0129 | -0.14 | 0.392
GCGCUGCCAGAAACUGGCUGCGC [mismatch-UU] | 0.141 | -0.405 | -0.689 | -0.231
GCGCUGCCAGAAACUGGCUUAAGCGC [bulge-UUA] | 0.176 | -0.252 | -0.601 | -0.128
GCGCUGCCAGAAACUGGCUUAGCGC [bulge-UU] | 0.63 | -0.0172 | 0.338 | 0.691
GCGCUGCCAGAAACUGGCUUCAGCGC [bulge-UUC] | -0.611 | -0.243 | -0.304 | -0.796
